The text below walks through data of patent US20080096792A1 (SEOUL NATIONAL UNIVERSITY INDUSTRY FOUNDATION, published 2008).

Assay [1] addresses integrin α3β1 on HOK-16B cells (human (HOK-16B human oral keratinocytes)) (UniProt P26006). As to the kind of experiment: cell-based or functional assay.
For assay [2], the target named is integrin α3β1 on HOK-16B cells (human (HOK-16B human oral keratinocytes), UniProt P26006 33-1051; P05556 21-798). As to the kind of experiment: cell-based or functional assay.
integrin α3β1 on HOK-16B cells, sequence (P26006 33-1051, chain 1 of 2): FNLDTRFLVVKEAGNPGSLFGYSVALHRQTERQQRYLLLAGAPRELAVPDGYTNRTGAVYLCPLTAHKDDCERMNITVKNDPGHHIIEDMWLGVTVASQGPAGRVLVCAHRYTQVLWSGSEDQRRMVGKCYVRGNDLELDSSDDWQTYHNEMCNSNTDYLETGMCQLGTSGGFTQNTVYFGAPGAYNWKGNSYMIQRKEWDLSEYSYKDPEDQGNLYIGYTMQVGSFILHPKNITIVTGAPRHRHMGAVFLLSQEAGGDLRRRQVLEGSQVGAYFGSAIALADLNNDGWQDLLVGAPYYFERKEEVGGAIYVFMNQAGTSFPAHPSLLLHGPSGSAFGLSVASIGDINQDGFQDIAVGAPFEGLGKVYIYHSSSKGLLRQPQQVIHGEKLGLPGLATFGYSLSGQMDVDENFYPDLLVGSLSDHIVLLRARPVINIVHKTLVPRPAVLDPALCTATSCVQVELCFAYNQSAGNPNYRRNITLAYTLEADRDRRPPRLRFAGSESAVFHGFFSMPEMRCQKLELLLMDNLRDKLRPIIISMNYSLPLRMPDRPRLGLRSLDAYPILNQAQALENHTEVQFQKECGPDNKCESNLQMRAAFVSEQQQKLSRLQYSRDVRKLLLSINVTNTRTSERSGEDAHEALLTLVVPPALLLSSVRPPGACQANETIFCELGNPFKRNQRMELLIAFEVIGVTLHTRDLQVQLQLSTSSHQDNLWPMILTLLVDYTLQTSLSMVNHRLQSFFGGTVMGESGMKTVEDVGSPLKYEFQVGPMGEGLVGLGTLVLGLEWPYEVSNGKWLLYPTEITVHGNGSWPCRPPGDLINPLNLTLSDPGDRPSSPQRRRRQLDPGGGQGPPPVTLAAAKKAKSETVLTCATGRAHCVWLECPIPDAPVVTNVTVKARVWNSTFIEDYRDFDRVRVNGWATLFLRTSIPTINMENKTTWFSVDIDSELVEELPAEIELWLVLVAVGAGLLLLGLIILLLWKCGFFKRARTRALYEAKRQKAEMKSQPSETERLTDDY
integrin α3β1 on HOK-16B cells, sequence (P05556 21-798, chain 2 of 2): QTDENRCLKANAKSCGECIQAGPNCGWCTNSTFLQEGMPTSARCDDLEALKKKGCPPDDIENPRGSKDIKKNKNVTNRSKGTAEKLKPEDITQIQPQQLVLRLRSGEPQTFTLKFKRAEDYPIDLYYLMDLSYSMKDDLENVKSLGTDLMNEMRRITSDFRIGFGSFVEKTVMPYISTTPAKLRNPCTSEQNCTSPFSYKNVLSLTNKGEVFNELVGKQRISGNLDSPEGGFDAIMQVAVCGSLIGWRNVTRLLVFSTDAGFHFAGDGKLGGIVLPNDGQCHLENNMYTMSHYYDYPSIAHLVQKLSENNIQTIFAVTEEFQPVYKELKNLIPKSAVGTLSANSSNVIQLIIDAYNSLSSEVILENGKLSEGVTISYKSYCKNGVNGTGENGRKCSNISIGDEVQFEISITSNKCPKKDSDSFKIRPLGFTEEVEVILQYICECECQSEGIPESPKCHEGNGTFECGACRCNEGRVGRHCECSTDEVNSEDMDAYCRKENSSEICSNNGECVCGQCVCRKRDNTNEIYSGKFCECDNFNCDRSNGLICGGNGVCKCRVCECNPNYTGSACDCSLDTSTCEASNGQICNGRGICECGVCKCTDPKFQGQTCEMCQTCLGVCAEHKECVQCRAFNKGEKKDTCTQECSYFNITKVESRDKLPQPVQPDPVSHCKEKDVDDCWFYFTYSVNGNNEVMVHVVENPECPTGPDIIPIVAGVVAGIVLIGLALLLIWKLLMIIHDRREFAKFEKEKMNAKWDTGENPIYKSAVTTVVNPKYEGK

integrin α3β1 on HOK-16B cells (human (HOK-16B human oral keratinocytes)), sequence (P26006 33-1051, chain 1 of 2): as the sequence (P26006 33-1051, chain 1 of 2) above
integrin α3β1 on HOK-16B cells (human (HOK-16B human oral keratinocytes)), sequence (P05556 21-798, chain 2 of 2, further chain): as the sequence (P05556 21-798, chain 2 of 2) above

Consider human placental laminin (LN) (ligand), for which the FAK phosphorylation at Tyr-397 in HOK-16B cells, fold induction compared with the untreated control in assay [1] was found to be 16.2 fold.

B1: recombinant LG3 protein of the human laminin-5 α3 chain (rLG3-His6) (ligand)
chain: MRGSHHHHHHGMASMTGGQQMGRDLTDDDDKDPSSRSAAGTMEFDFVRLNDTVGVTKKCSEDWKLVRSASFSRGGQLSFTDLGLPPTDHLQASFGFQTFQPSGILLDHQTWTRNLQVTLEDGYIELSTSDSGGPIFKSPQTYMDGLLHYVSVISDNSGLRLLIDDQLLRNSKRLKHISSSRQSLRLGGSNFEGCISNVFVQRLSLSPEVLDLTSNSLKRDVSLGGCSLNKPPFLMLLKGSTRFNKTKTFRINQLLQDTPVASPRSVKVWQDACSPLPKTQANHESLVNSLLDPAANKARKVAELAAATAEQ
In the case of B1, in assay [2], the “FAK phosphorylation at Tyr-397 in HOK-16B cells, fold induction compared with the untreated control” value turned out to be 8.2 fold.
